# Paper PMC10033279
# B1: NADH:quinone oxidoreductase (NQO), PA1024 (Pseudomonas aeruginosa PAO1) (protein)
# chain: MGVFRTRFTETFGVEHPIMQGGMQWVGRAEMAAAVANAGGLATLSALTQPSPEALAAEIARCRELTDRPFGVNLTLLPTQKPVPYAEYRAAIIEAGIRVVETAGNDPGEHIAEFRRHGVKVIHKCTAVRHALKAERLGVDAVSIDGFECAGHPGEDDIPGLVLLPAAANRLRVPIIASGGFADGRGLVAALALGADAINMGTRFLATRECPIHPAVKAAIRAADERSTDLIMRSLRNTARVARNAISQEVLAIEARGGAGYADIAALVSGQRGRQVYQQGDTDLGIWSAGMVQGLIDDEPACAELLRDIVEQARQLVRQRLEGMLAGV
# notes: full-length gene PA1024 in pET20b(+), expressed in E. coli Rosetta(DE3)pLysS, purified; EC 1.6.5.9
# Substrate: NC(=O)C1=CN([C@@H]2O[C@H](COP(=O)(O)OP(=O)(O)OC[C@H]3O[C@@H](n4cnc5c(N)ncnc54)[C@H](O)[C@@H]3O)[C@@H](O)[C@H]2O)C=CC1
# Assay: purified protein
# Format: biochemical, Pseudomonas aeruginosa
# Settings: varied 1,4-benzoquinone, 20 mM KPi, 200 mM NaCl, pH 7.0, 25 °C
protein,measurement,value
B1,Km,70 ± 10 µM
same,kcat,27 ± 1 s⁻¹
